Data from article PMC8142884.

Target: S2H14 (variable region fused with the constant region of IgG1)
Test: SPR

Q: Which Kd does the source give for “SARS-CoV-2 receptor binding domain (RBD), His-tagged (from UniProt P0DTC2 319-541) (domain or fragment)” here?
A: The Kd was 4.12 nM.
